T1: ICOS-L wild-type-His (UniProt O75144 19-256)
T1 construct: ICOS ligand (ICOS-L, B7-H2, CD275), ectodomain D1-T238; plasmid pMAZ-ICOS-L-wild-type-His; also called wild-type ICOS-L; B7-H2; source: Expi293F, transient transfection, purified (Ni-NTA agarose, SEC)
T1 sequence (looked up): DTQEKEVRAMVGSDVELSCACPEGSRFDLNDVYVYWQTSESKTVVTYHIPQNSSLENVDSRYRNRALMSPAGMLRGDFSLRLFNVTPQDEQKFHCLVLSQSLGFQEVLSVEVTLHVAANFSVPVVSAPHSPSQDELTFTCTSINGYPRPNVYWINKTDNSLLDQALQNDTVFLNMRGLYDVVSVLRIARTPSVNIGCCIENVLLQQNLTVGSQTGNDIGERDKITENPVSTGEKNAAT

T2: ICOS-L-H (N57H)-His (UniProt O75144 19-256, N57H)
T2 construct: plasmid pMAZ-ICOS-L-H(N57H)-His; source: Expi293F, transient transfection, purified (Ni-NTA agarose, SEC)
T2 sequence (looked up): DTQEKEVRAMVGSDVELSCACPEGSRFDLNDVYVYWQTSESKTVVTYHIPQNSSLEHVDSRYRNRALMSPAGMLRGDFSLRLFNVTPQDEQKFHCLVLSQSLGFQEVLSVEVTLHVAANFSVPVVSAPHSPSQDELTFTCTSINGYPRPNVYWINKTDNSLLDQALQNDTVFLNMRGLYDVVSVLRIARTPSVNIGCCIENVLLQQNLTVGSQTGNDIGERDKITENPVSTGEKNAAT

T3: ICOS-L-P (Q51P)-His (UniProt O75144 19-256, Q51P)
T3 construct: plasmid pMAZ-ICOS-L-P (Q51P)-His; source: Expi293F, transient transfection, purified (Ni-NTA agarose, SEC)
T3 sequence (looked up): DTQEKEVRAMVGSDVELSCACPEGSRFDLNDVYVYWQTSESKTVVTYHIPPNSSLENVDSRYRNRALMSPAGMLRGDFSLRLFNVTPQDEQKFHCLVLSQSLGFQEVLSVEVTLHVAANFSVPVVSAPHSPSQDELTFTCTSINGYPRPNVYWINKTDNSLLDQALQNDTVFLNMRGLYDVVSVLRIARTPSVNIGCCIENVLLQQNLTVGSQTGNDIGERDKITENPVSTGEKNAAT

T4: ICOS-L Y8 (Q51P, N57H)-His (UniProt O75144 19-256, Q51P | N57H)
T4 construct: plasmid pMAZ-ICOS-L-Y8(Q51P, N57H)-His; also called Y8 variant; source: Expi293F, transient transfection, purified (Ni-NTA agarose, SEC)
T4 sequence (looked up): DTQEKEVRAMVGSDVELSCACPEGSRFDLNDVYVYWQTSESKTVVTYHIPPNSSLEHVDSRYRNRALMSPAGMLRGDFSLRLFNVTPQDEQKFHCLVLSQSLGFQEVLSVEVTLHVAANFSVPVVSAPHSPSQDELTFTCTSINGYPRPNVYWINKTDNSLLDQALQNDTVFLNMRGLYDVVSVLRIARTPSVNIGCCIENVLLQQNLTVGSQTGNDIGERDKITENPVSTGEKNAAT


Experiments:
Settings in all cases: both partners purified
ICOS-L wild-type-His = molecular target: T1, ICOS-L wild-type-His; assay: BLI; Octet R8; hICOS-Fc (5 µg/mL) immobilised on a Protein A biosensor; serial dilutions of ICOS-L variants, 10 min association, 10 min dissociation, 1× PBS pH 7.4
ICOS-L-H (N57H)-His = molecular target: T2, ICOS-L-H (N57H)-His; assay: as above
ICOS-L-P (Q51P)-His = molecular target: T3, ICOS-L-P (Q51P)-His; assay: as above
[1] = molecular target: T4, ICOS-L Y8 (Q51P, N57H)-His; assay: as above
[2] = molecular target: T4, ICOS-L Y8 (Q51P, N57H)-His; assay: ELISA; ICOS-Fc (hICOS-Fc or mICOS-Fc) coated at 4 µg/mL in 0.05 M Na2CO3 pH 9.6; serially diluted His-tagged ICOS-L variants, detected with mouse anti-His-HRP

Kd (ICOS-L wild-type-His) [µM]	koff (ICOS-L wild-type-His) [s⁻¹]	kon (ICOS-L wild-type-His) [M⁻¹ s⁻¹]	Kd (ICOS-L-H (N57H)-His) [µM]	koff (ICOS-L-H (N57H)-His) [s⁻¹]	kon (ICOS-L-H (N57H)-His) [M⁻¹ s⁻¹]	Kd (ICOS-L-P (Q51P)-His) [µM]	koff (ICOS-L-P (Q51P)-His) [s⁻¹]	kon (ICOS-L-P (Q51P)-His) [M⁻¹ s⁻¹]	Kd [1] [µM]	koff [1] [s⁻¹]	kon [1] [M⁻¹ s⁻¹]	binding result [2]	Binder
0.113	0.0337	298000	0.0233	0.00567	244000	0.00475	0.000961	202000	0.00119	0.000179	150000	–	hICOS-Fc (Fc fusion, human, UniProt Q9Y6W8 21-140, looked up, human Inducible T-cell Co-Stimulator (ICOS), extracellular domain E21-K140; plasmid pMAZ-hICOS-Fc; also called hICOS-hFc; human ICOS ectodomain fused to human Fc; source: Expi293F, transient transfection, purified (Protein A resin)) EINGSANYEMFIFHNGGVQILCKYPDIVQQFKMQLLKGGQILCDLTKTKGSGNTVSIKSLKFCHSQLSNNSVSFFLYNLDHSHANYYFCNLSIFDPPPFKVTLTGGYLHIYESQLCCQLK
–	–	–	–	–	–	–	–	–	–	–	–	binds	mouse ICOS (E21-K141)-hFc (Fc fusion, UniProt Q9WVS0 21-141, looked up, mouse ICOS, E21-K141; Plasmid pMAZ-mICOS-Fc; also called mICOS-Fc; source: Expi293F, transient transfection, purified (Protein A resin)) EINGSADHRMFSFHNGGVQISCKYPETVQQLKMRLFREREVLCELTKTKGSGNAVSIKNPMLCLYHLSNNSVSFFLNNPDSSQGSYYFCSLSIFDPPPFQERNLSGGYLHIYESQLCCQLK
